Assay results published in the nanobody polyreactivity screen of Harvey et al. (2022).

Assay: yeast display, Sf9 membrane polyspecificity reagent, FACS + sequencing; frameworks hold sequencing errors
In short: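 Using colony PCR, genes from sorted yeast display clones were amplified, then sequenced on MiSeq at 2 × 250 and filtered by CDR length. The clones had been stained with 10% biotinylated, detergent-solubilized Sf9 membrane reagent for 1 hour at 4 °C and sorted by FACS into low and high (top ~1%) gates on anti-HA and streptavidin fluorescence. Polyreactivity labels come from the gate of origin.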

| Sequence | polyreactivity (PSR sort gate) |
| --- | --- |
| QVQLVESGGGLVQAGGSLRLSCAASGSIIDANAMGWYRQAPGKERELVAAITSGDSTYYADSVKGRFTISRDNAKNTVYLQMNSLKPEDTAVYYCAADPVWHYYRMDYWGQGTQVTVSS | low polyreactivity |
| QVQLVESGGGLVQAGGSLRLSCAASGRIYLGNVMGWYRQAPGKERELVAAISWSAGSTYYSDSVKGRFTISRDNAKITVYLQMNSLKPEDTAVYYCAAVYLWWSYEFDYWGQGTQVTVSS | low polyreactivity |
| QVQLVESVGGLVQAGGILRLSCGASGRTFTGYTMRWYRQEPGKERELVATISRRGRSTYYADSVKGRFTISRDNAKNTVYLQMNSLKPEDTAVYYCAAEKPRAVYFEYDYWGLGTQVTVSS | high polyreactivity |
| QVQLVESGGGLVQAGGSLRLSCAASGSTFLTNVMGWYRPAPGQERELVAAITIGGSTNYADSVKGRFTISRDNAKNTVYLQMNILKPEDTAVYYCATDIRRKPRYVDYEYWGQGTQVTVSS | low polyreactivity |
| QVQLVESGGGLVQAGGSLRLSCAASGFTFSYYAMGWDRQAPGKERELVAVISNSDGSTYYADSVKGRFTISRDNAKNTVYLQMNSLNPEDTAVYYCAAVPLWDYKFFYYLLYDYWGQGTQVTVSS | low polyreactivity |
| QVQLVESGGGLVQAGGSLRLSCAASGSIFVTNVMGWYRQAPGKERELVAVINSGGRTYYADSVKGRFTISRDNAKNTVYLQMNSLKPEDTAVYYCAKDSWSSFQSLYPEFDYWGQGTQVTVSS | low polyreactivity |
| QVQLVESCGGLVQAGGSLRLSCAASGSTFILYAMGWYRPAPGKERELVAAISWSTGITYYADSVKGRFTISRDNAKNTVYLPMNSLKPEDTAVYYCAADAWGYHDYDASYSTGYEYWGQGTQVTVSS | high polyreactivity |
| QVQLVESGGGLVQAGGSLRLSCAASGSIFKSYAMGWYRQAPGKERELVAVISDSGSTYYADSVKGRFTISRDNAKNTVYLQKNSLKPEDTAVYYCRGRGRRNEYWGQGTQVTVSS | high polyreactivity |
| QVQLVESGGGLVQEGGSLRLSCAASGSTFSYNAMGWYRQAPGKERELVAAITSGSSTNYADSVKGRFTISRDNAKNTVYLQMNSLKPEDTAVYYCAADGYQDKYYWLETWVGYWGQGTQVTVSS | low polyreactivity |
| QVQLVESGGGLVQAGGSLRLSCAASGFTFYKYAIGWYRQAPGKERELVAGIRRGGTNYADSVKGRFTISRDNAKNTVFLQMNSLKPEDTAVYYCAADVRPYYSAYRGRYYYWGQGTQVTVSS | high polyreactivity |
| QVQLVESGGGLVQAGGSLRLSCAASGRIFGYYARGWYRQAPGKEREFVAGITQRTDSTYYADSVKGRFTISRDNAKNTVYLQMNSLKPEDTAVYYCAARGYGGYHWGYYWGQGTQVTVSS | high polyreactivity |
| QVQVVESGGGLVQAGASLRLSCAATGSIFVWNDMGGYRQAPGTEREFVAAITSGDGSTYYADSVKGRFTISRDNAKNTGYLQMNSLKPEDTAVYYCAARLRVTGFYSRTRFYWGQGTQVTVSS | low polyreactivity |
| QVQLVESGGGLVQAGGSLRLSCAASGSISSKNAMGWYRQAPGKEREFVAVISGTGGSTYYADSVKGRFTISRDNAKNTVYLQMNSLKPEDTAVYYCAAAASSIVSYGYTWTYGYWGQGTQVTVSS | low polyreactivity |
| QVQLVESGGGLVQAGGSLRLSCAPSRSTLNYYAMGWYRQAPGKERELVAAITWSGGSTSYADSVKGRFTISRDNAKNTVYLQMNSLKPEDTAVYYCATDFPTVQLYDTDWLSSDMGYWGQGTQVTVSS | low polyreactivity |
| QVQLVESGGGLVQAGGSLRLSCAASGFTFAWYAMGWYRQAPGKERELVAAISWSGGRTYYADSVKGRFTISRDNAKNTVYLQMNSLKPEDTAVYYCAALFLYGYVREYDYWGQGTQVTVSS | high polyreactivity |
| QVQLVESGGGLVQEGGSLRLSCAASGSTFGGYAMGWYRQAPGKERELVAAISGSGVRTYYADSVKGRFTISRDNAKYSVYLQMNSLKPEDTAVYYCAKRVRYPGDRYYYWGQGSQVTVSS | high polyreactivity |
| QVQLVESGGGLVQAGGSLRLSCAASGSTFAFNAMGWYRHAPGKERELVATISQSGGSTYYADSVKGRFTFSRDNAKNTVYLQKNSLKPEDTSVYYCAKRYWSKWYGRYDYWRQGTQVTVSS | low polyreactivity |
| QVQLVESGGGLVQAGGSLRLSCAASGRTFVGYAMGWYRQAPGKEREFVAAISYRGGRTYYADSVKGRFTISRDNAKNTVYLQMNSLKPEDTAVYYCAAEYRSNHGGVDYWGQGTQVTVSS | high polyreactivity |
| QVQLVESGGGLVQAGGSLRLSCAASGFIFNKYAMGWYRQAPGKERELVATIRRDGSTNYADSVKGRFTISRDNAKNTVYLQMNSLIPEDTAVYYCAVRPYYWSRDYYWGQGTQVTVSS | high polyreactivity |
| QVQLVESGGGLVQAGGSLRLSCAASGSTSVDYTMGWSRQAPGKERELVAAIDYNGDSTYYADSVKGRFTISRDNAKITVYLQMNRLKPEDTAVYYCADDVWTLDPDEYDYWGQGTQVTVSS | low polyreactivity |
| QVQLVESGGGLVQAGGSLRLSCAASGRIFAPKAMGWYRQAPGKERELVATITWSGGSTYYADSVKGRFTISRDNAKNSVYLQMNSLNPEDTAVYYCAAETQIRLWSLQYRYYYWGQGTQVTVSS | low polyreactivity |
| QVQLVESGGGLVQAGGSLRLSCAASGRTFTAYAMGWYRQAPGKERELVAAISVGGGSTYYADSVKGRFTISRDNAKNTVYLQMNSLKPEDTAVYYCAADRSYYLDGYDYWGQGTQVTVSS | low polyreactivity |

| Sequence | polyreactivity (PSR sort gate) |
| --- | --- |
| QVQLVESGGGLVQAGGSLRLSCAASGRIFRYYAMGWYRQAPGKERELVAVINWSGGSTYYADSVKGRFTISRDNAKNTVYFQMNSLKPEDTAVYYCNVYSVYPQFNYWGQGTQVTVSS | high polyreactivity |
| QVQLVESGGGLVQAGGSLRLSCAPSGRIFYYYAKGWYRQAPGKERELVAAINSGGSTNYADSVKGRFTISRDNAKNTVYLQMNSLKPEDTAVYYCAADAKLVSEFDYWGQGTQVTVSS | low polyreactivity |
| QVQLVESGGGLVQAGGSLRLSCAASGFTFRGNAMGLYRQAPRKERELVATITYNAGSTYYADSVKGRFTISRDNAKNTVYLQMNSLKPEDTAVYYCAVELDSVPDYEPWTEYDYWGQGTQVTVSS | low polyreactivity |
| QVQLVESGGGLVQAGGSLRLSCAASGGTFVGNAMGWYRQAPGKERELVAAISTNSGSTYYADSVKGRFTISRDNAKNTVYLQMNSLKPEDPAVYYCATRNSSKRRGYYYWGQGTQVTVSS | high polyreactivity |
| QVQLVESGGGLVQAGGSLRLSCAASGFIFESNAMGWYRQAPGKERELVAAITKRGGSTYYADSVKGRFTISRDNAKNTVYLQMNSLKPEDTAVYYCARYSSRYSSGYDYWGQGTQVTVSS | high polyreactivity |
| QVQLEESGGGLVQAGGSLRLSCAASGITYYYAMGWYRQAPGKERELVAVITPGVSTNYADSVKGRFTISRDNAKNSVYLHMNSLKPEDTAVYYCATDVQVPCIGRSVYAYEYWGQGTQVTVSS | low polyreactivity |
| QVHLVESGGGLVQAGGSLRLRCAASGSNLESYAMGWYRQAPGKEMELVADITYDGGITYYADSVKGRFTISRDNAKNTVYLQMNSLKPEDTAVYYCATEYRYWQSDYSTYFPYDYWGQGTQVTVSS | low polyreactivity |
| QVQLVESGGGLVQAGGSLRLSCAASGRIFNYYAMRWYRQAPGKETELVAAITSSGGSTYYADSVKGRFTISRDNAKNTVYLQMNSLKPEDTAVYYCAAVSTATIRGGYWGQGTQVTVSS | high polyreactivity |
| QVQLVESGGGLVQAGGSLRLSCAASGSISGSNDMGWYRQAPGKERELVAAISGGSSTNYADSVKGRFTISRDNAKNTVYFQMNSLKPEDTAVYYCAARYRWFFFYGPHSPGYNYWGQGTQVTVSS | high polyreactivity |
| QVQLVESGGGLVQAGGSLRLSCAASGRIFNRYAMGWSRQAPGKERELVAAITTSADSTYADSVKGRFTISRDNAKNTVYLQRNSLKPEDTAVYYCNVASRQGSTYDYWGQGTQVTVSS | high polyreactivity |
| QVQLVESGGGLVQAGGSLRLSCSASGRIFRFYGMGWYRQAPGKDRELVAAISSRGGSTYYADSVKGRFTISRDNAKNTVYLQMNSLKPEDSGVYYCAASGAFWYPYDYWGQGTQVTVSS | high polyreactivity |
| QVQLQESRGGLVQAGGSLRLSCAASGSITHYIFMGWYRQAPGKEREFVAGIGYGGTTNYADSVKGRFTISRDNAKNTVFLQMNSLKPEDTAMYYCAAREATEFYLYYWGQGTQVTVSS | low polyreactivity |
| QVQLVESGGGLVQAGGSLRLSCAASGIIFYDYAMGWYRQAPGKERELVAAISGSGGSTYYADSVKGRFTISRDNAKNTVYLQMNSLKPEDTAVYYCAARFTRQMYYWGQGTQVTVSS | high polyreactivity |
| QVQLVESGGGLVQAGGSLRLSCAASGSTFYWYTMGWYRQAPGKEKELVARISSSGSTNYADSVKGRFTISRDNAKNTVYLQMNSLKPEDTAVYYCNKDWIYRGYDYWGQGTQVTVSS | high polyreactivity |
| QVQLVESGGGLVQAGGSLRLSCAASGRIIPYNTMGWYRQAPGKERELVAAISQSDTGTHYADSVKGRFTISRDNAKNTVYLQMNSLKPEDTAVYYCAVDWGYSDDVPYEYWGQGTQVTVSS | low polyreactivity |
| QVQLVESGGGLVQAGGSLRLSCAASGFTFEYYPMGWYRQAPGKERELVADITTSSAGTYYADSVKGRFTISRDNAKNTFYLQMNSLKPEDTAVYYCNRDALNTGEDLDYWGQGTQVSVSS | low polyreactivity |
| QVPLVESGGGLVQAGGSLRLSCAASGLTFRDNAMGCSRQAPGKERELVAALSTNGGSTYYADSVTGRFTISRDNAKNTVYLQLNSLKPEDTALYVCAKSFLPQYPQVDSDYWGQGTQVTVSS | low polyreactivity |
| QVQLVESGGGLVQAGASLRLSCAASGSISKSYAMGWYRQAPGKERELVAAISWRGGSTYADSVKGRFTISRDNAKNTVYLQMNSLKPEDTAVYYCAAVPVHTGSLYWGFTTGYDYWGQGTQVTVSS | low polyreactivity |
| QVQLVESGGGLVQAGGSHRLSCAASGTTIDYYAMGWYRQAPGKERELVAAISWSGGSTYYADSVKGRFTFSRDNAKNTVYLQMNSLKPEDTAVYYCAADSAFYTGSDYGWSDYDYWGQGTQVTVSS | low polyreactivity |
| QVQLVESGGGLVQAGRTLRLSCAASGSNFSVYVMGWYRQAPGKEWELVAAISWSDSDTYYADSVKGRFTISRDNATNNVYLLMNSLNPEDTAVYYCAAETFDYHDYIANGSGEYDYWGQGNQVTVSS | high polyreactivity |
| QVQLVESGGRLVQAGGSLRLSCSASGFTLIHYAMGWYRQAHGKERELVAGITTSGGSTYYADSVKGRFTISRDNAKNTVYLQMNSLKPEDTAFYYCAAGSTTGQTGKVGYWGQGTQVTVSS | high polyreactivity |
